Laboratory results as given in patent CN111434682A.
“And” between values parts separate entries of the source, which are not always exact repeats. Equal entries are not always repeated. Where two headings read alike, the source gives them in different places.

Columns and labels:
[1] = molecular target: H7N9病毒的HA蛋白(购自ACROBiosystems) (H7N9 influenza virus); assay: ELISA, HA coated at 100 ng/well, negative control, anti-human IgG-HRP
[2] = molecular target: H7N9病毒 A/Anhui/1/2013 (H7N9 influenza virus A/Anhui/1/2013); assay: cell-based or functional assay
[3] = molecular target: H7N9病毒的HA蛋白(购自ACROBiosystems) (H7N9 influenza virus)
[4] = molecular target: H7N9病毒的HA蛋白(购自ACROBiosystems) (H7N9 influenza virus); remark: listed apart in the source

| Molecule | 450nm absorbance [1] | IC50, micro-neutralisation ELISA on MDCK cells infected with H7N9 virus [2] | 450nm absorbance [3] | Kd [4] |
| --- | --- | --- | --- | --- |
| 阴性对照 (negative control of the ELISA) | 0.0675 OD450 and 0.0554 OD450 | – | – | – |
| 抗H7N9全人源单克隆抗体7T33 (antibody, V domains shown) VH: QVQLVESGAEVKKPGASVKVSCKASGTIFYSTEINWVRQATGQGLEWMGWMNPESGEYGFAQKFQGRVTMTRNTSITTAYMELSSLTSEDTAVYYCAYGNAECSAGGSCTNWFGEPWGQGTLVTVSS VL: SSELTQDPAVSVALGQTVRITCQGDRLRSTTASWYQQKPGQAPVLVIYGKNNRPSGIPDRFSGSSSGNTASLTITGAQAEDEADYYCNSREYSGTHLVFGGGTKLTVLV | – | 12.8 µg/mL | 1.53 OD450 and 1.86 OD450 and 1.8 OD450 | 5.43 nM |
